Data on 1 molecule can be found in patent US20190071517A1 (KANAGAWA PREFECTURAL HOSPITAL ORGANIZATION, published 2019).

One assay addresses T1, HEG1 2kb (human, UniProt Q9ULI3 671-1381).
T1 construct: Inserted into pFLAG-CMV1, expressed in ACC-MESO-1; also called fragment 2kb
T1 sequence: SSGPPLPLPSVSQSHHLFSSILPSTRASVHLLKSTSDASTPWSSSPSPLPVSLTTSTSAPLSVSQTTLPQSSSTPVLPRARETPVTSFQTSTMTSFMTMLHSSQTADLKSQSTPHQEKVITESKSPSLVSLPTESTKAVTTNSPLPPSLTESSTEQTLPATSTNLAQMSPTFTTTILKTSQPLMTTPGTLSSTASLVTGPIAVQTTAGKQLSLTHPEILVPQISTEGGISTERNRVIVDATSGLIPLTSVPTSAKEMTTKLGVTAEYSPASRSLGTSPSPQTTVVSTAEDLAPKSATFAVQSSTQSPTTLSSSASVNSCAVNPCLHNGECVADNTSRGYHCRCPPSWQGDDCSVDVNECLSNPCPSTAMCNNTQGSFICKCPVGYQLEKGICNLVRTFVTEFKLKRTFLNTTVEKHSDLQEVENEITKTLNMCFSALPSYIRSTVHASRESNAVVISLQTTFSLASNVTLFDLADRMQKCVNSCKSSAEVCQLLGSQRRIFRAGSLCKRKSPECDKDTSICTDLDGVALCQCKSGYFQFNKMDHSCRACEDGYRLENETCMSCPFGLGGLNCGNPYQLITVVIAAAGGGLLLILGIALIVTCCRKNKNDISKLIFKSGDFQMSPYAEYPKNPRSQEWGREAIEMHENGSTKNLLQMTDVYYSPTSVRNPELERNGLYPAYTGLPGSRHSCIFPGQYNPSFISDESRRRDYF
Description: Western blot of ACC-MESO-1 cell lysate. On the procedure: (§1) Gene transfer was performed with HEG1 siRNA (H9106) (SEQ ID NOs: 40, 41) and human HEG1 for the mesothelioma cell line ACC-MESO-1, and the reactivity of the SKM9-2 was examined through Western blot analysis. A full length protein (HEG1 full length) or a fragment (HEG1 3kb, HEG1 2kb, or HEG1 1kb) of the human HEG1 was used. The full length human HEG1 protein, a protein having the amino acid sequence set forth in SEQ ID NO: 35, was obtained through inserting a base sequence set forth in SEQ ID NO: 34 into pFLAG-CMV1 (Sigma-Aldrich Japan K.K.) to obtain a plasmid, transforming the plasmid, and allowing the mesothelioma cell line to express the plasmid. Fragment HEG1 3kb was obtained through inserting a fragment corresponding to a sequence from position 285, leucine, to position 1387, phenylalanine, of SEQ ID NO: 35 into pFLAG-CMV1 (Sigma-Aldrich Japan K.K.) in an in-frame manner, and allowing the mesothelioma cell line to express the resultant. HEG1 2kb and HEG1 1kb were obtained through allowing the mesothelioma cell line to express products similarly obtained from a fragment corresponding to a sequence from position 677, leucine, to position 1387, phenylalanine, of SEQ ID NO: 35 and a fragment corresponding to a sequence from position 992, valine, to position 1387, phenylalanine, of SEQ ID NO: 35, respectively. Each cell lysate was analyzed through Western blot with the SKM9-2 antibody.

In the next assay the target is T2, HEG1 3kb (human, UniProt Q9ULI3 285-1381).
T2 construct: Inserted in frame into pFLAG-CMV1, expressed in ACC-MESO-1; what the vector adds is not described; also called fragment 3kb
T2 sequence: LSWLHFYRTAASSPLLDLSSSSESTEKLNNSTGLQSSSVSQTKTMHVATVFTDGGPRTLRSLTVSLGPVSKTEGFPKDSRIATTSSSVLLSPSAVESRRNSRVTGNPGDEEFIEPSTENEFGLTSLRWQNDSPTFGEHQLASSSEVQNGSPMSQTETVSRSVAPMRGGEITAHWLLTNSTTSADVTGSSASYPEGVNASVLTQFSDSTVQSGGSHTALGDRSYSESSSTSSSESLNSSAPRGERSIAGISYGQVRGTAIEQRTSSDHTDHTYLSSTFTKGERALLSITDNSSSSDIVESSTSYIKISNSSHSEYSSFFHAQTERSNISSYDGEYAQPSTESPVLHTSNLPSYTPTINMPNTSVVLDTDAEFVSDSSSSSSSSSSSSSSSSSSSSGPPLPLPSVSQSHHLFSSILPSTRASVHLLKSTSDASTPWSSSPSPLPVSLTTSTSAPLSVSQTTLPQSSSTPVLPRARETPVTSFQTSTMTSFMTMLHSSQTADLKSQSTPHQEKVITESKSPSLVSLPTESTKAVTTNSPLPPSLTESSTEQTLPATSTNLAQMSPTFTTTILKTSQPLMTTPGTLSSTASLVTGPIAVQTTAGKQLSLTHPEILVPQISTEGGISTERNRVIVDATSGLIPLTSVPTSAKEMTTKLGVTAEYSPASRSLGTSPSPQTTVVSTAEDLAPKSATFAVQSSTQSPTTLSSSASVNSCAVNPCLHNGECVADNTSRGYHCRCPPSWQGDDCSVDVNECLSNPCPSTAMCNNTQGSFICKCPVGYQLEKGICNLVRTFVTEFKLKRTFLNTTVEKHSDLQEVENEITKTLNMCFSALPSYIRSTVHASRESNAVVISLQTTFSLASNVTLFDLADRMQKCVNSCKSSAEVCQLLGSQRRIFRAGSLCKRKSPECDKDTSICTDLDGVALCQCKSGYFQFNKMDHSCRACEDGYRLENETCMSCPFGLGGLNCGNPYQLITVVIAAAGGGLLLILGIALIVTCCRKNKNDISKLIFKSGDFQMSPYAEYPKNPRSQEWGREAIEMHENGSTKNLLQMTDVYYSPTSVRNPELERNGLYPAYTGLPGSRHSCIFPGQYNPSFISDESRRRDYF
Description: Western blot of ACC-MESO-1 cell lysate. The method, then:
as §1
Background: In western blotting, separated proteins are transferred to a membrane and probed.

The target of assay [1] is T3, HEG1 full length (full length human HEG1 protein expressed in ACC-MESO-1) (human, UniProt Q9ULI3 30-1381, limits assumed).
T3 construct: Full length; expressed from pFLAG-CMV1 in ACC-MESO-1 with the endogenous HEG1 knocked down; cell lysate in Western blot; What the vector adds is not described; also called full length protein
T3 sequence: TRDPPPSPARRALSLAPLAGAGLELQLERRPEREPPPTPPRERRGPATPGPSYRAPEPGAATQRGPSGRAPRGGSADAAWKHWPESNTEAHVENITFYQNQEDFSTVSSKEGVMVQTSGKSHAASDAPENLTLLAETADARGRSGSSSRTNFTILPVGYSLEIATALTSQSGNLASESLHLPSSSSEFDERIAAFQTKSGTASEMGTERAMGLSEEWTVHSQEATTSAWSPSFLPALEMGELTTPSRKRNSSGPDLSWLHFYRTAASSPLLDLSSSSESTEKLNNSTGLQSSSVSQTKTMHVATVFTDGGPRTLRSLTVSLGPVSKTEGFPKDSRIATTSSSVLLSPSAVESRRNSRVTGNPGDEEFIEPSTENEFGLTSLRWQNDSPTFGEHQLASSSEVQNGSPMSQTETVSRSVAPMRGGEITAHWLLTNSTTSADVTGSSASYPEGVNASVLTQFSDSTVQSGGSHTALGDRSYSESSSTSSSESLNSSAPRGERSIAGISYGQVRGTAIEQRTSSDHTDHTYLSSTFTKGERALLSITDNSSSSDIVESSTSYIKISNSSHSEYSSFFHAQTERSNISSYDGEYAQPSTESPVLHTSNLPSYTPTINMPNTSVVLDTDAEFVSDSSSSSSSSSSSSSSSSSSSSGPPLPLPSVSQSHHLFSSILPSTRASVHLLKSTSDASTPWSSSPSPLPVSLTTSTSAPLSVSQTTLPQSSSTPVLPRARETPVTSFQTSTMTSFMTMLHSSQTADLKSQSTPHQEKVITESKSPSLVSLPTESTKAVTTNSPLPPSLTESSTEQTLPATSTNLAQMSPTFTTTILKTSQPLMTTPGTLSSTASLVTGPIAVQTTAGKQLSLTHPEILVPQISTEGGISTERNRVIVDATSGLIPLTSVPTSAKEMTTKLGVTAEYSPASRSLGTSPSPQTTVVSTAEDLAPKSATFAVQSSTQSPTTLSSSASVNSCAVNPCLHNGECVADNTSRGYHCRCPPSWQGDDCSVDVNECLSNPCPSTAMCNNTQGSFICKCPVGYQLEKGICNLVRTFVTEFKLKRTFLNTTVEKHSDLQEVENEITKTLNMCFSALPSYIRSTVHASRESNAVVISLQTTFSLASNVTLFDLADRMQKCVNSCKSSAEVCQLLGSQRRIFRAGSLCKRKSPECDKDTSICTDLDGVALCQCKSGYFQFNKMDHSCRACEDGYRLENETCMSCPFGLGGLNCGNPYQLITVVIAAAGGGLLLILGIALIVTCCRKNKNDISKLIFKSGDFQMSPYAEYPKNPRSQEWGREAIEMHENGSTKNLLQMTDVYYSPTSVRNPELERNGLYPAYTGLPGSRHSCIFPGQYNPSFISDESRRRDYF
Kind of assay: Western blot of ACC-MESO-1 cell lysate. On the procedure:
as §1

In the next assay the target is T4, HEG1 1kb (human, UniProt Q9ULI3 986-1381).
T4 construct: Inserted into pFLAG-CMV1, expressed in ACC-MESO-1; also called fragment 1kb
T4 sequence: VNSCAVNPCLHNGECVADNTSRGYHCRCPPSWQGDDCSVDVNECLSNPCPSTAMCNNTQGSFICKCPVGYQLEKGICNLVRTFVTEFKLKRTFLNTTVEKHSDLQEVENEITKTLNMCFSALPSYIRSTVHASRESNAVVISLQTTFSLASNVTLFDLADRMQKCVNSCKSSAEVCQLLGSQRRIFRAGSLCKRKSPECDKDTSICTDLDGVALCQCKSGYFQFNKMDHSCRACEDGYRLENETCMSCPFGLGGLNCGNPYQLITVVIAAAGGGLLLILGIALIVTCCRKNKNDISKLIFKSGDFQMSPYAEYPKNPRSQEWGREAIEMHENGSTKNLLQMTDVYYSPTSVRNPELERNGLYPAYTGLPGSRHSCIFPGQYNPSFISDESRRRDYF
Kind of assay: Western blot of cell lysate. On the procedure: as §1, with “HEG1 2kb and HEG1 1kb were obtained through allowing the mesothelioma cell line to express products similarly obtained from a fragment corresponding to a sequence from position 677, leucine, to position 1387, phenylalanine, of SEQ ID NO: 35 and a fragment corresponding to a sequence from position 992, valine, to position 1387, phenylalanine, of SEQ ID NO: 35, respectively.” left out

B1: SKM9-2 antibody (antibody, mouse IgG1, kappa, V domains shown)
VH: QVQLQQPGAELVRPGASVKLSCKASGFSFTTYWITWVKQRPGQGLEWIGMIHPSDSETRLSQTFKDKATLTVDKSSNTAYMQFSSPTSEDSAVYYCVRDFDVWGAGTTVTVSS
VL: DVLMTQTPLSLPVSLGDQASISCRSSQNIVHNNGNTYLGWYLQKPGQSPKLLIFKVSNRFSGVPDRFSGSGSGTDFTLKISRVEAEDLGVYYCFQGSHIPRTFGGGTRLEIKR
notes: also called monoclonal antibody produced from the SKM9-2 hybridoma
On to B1, for which the binding result with HEG1 2kb is given as “binds”; with HEG1 3kb, “binds”; in assay [1], “binds”; with HEG1 1kb it was “no binding”.
